Target: human FasL, cell surface (membrane-bound) (human) (UniProt P48023)
Assay: cell-based or functional assay

Sequence of human FasL, cell surface (membrane-bound) (human) (P48023 whole entry): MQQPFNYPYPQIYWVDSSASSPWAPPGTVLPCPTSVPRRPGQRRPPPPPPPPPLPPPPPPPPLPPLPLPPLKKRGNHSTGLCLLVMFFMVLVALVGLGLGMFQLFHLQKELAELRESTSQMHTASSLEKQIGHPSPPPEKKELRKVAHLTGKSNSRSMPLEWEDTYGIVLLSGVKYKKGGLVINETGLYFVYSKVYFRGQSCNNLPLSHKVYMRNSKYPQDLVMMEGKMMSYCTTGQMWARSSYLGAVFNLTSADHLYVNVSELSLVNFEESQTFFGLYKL

inhibition of FasL-mediated apoptosis of Jurkat cells (annexin-V externalization, flow cytometry), IC50: 102 nM
Substance: soluble CD95-Fc (sCD95-Fc) fusion protein (from UniProt P25445 26-172) (Fc fusion)
